Article PMC5028900

Key:
GST-MeCP2 AT-hook 2 = GST-MeCP2 AT-hook 2 (UniProt P51608); test: competition EMSA; details: 0.8 ug poly(dA-dT) against N1 probe; EMSA: 10 mM Tris-HCl pH 7.5, 50 mM KCl, 0.5 mM MgCl2, 0.1 mM EDTA, 0.1 mg/mL BSA, 5% glycerol; 0.5 ng probe in 20 uL; 30 min on ice; native 6% acrylamide gel
GST-MeCP2 AT-hook 1 = GST-MeCP2 AT-hook 1 (UniProt P51608); test: competition EMSA; details: 0.8 ug poly(dA-dT) against N1 probe; EMSA: 10 mM Tris-HCl pH 7.5, 50 mM KCl, 0.5 mM MgCl2, 0.1 mM EDTA, 0.1 mg/mL BSA, 5% glycerol; 0.5 ng probe in 20 uL; 30 min on ice; native 6% acrylamide gel

UniProt P51608, sequence (P51608 whole entry): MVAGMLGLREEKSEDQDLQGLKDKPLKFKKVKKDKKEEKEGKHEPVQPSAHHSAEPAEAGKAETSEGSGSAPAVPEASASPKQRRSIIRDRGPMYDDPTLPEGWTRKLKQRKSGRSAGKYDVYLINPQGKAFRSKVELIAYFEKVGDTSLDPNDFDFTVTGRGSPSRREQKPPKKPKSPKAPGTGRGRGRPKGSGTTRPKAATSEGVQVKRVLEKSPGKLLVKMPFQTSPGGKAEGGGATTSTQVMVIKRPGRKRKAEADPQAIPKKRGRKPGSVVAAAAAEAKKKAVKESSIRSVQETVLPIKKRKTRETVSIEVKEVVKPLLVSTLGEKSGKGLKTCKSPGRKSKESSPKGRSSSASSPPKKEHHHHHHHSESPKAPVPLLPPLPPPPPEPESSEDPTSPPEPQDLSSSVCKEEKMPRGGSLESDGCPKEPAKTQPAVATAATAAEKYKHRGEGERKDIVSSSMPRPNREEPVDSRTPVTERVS

**Q.** With poly(dA-dT) as the substance, how does the binding signal (% of bound probe displaced) (GST-MeCP2 AT-hook 2) read?
**A.** The binding signal (% of bound probe displaced) was 20.

**Q.** What about the binding signal (% of bound probe displaced) (GST-MeCP2 AT-hook 1) of the same substance?
**A.** The binding signal (% of bound probe displaced) was 67.
